Results on 94 variants are retold here after the supplement of paper PMC10567573.

First the molecules themselves.
B1: KCTD10 (parent)
chain: SSKEEQKLIATSNKPAVKLLYNRS
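Note: lentivirally expressed fusions sorted by FACS into six bins by GFP to DsRed ratio, PSI derived from sequencing read proportions per bin multiplied by bin number.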

Variants of B1 are the subject of the data set. Kind of data set: protein stability index of a GFP-peptide fusion (GPS, HEK-293T) (PSI 1-6); higher = more stable. To be noted: c terminus: a fixed tail appended.
For the variant SSKEEQKLIATSQKPAVKLLYNRS, the protein stability index is 2.95.

For the variant SSKEEQKLIATSDKPAVKLLYNRS, the protein stability index was 4.73. As to SSKEEQKLIATSWKPAVKLLYNRS, the protein stability index came out at 2.67. Next, SSKEEQKLIATSFKPAVKLLYNRS: 3.16; SSKEEQKLIATSSKPAVKLLYNRS: 3.79; SSKEEQKLIATSHKPAVKLLYNRS: 3.9. As for SSKEEQKLIATSEKPAVKLLYNRS, the protein stability index turned out to be 4.54. The value for SSKEEQKLIATSAKPAVKLLYNRS was 3.58. The value for SSKEEQKLIATSLKPAVKLLYNRS was 3.3; that for SSKEEQKLIATSVKPAVKLLYNRS was 3.75. In the case of SSKEEQKLIATSMKPAVKLLYNRS, the protein stability index is 3.69.

In the case of SSKEEQKLIATSTKPAVKLLYNRS, the protein stability index is 4. For the variant SSKEEQKLIATSPKPAVKLLYNRS, the protein stability index was 4.12. Next, SSKEEQKLIATSIKPAVKLLYNRS: 3.21; SSKEEQKLIATSKKPAVKLLYNRS: 3.96. SSKEEQKLIATSRKPAVKLLYNRS: the protein stability index came out at 3.33. On to SSKEEQKLIATSYKPAVKLLYNRS, for which the protein stability index was determined as 3.38. For the variant SSKEEQKLIATSCKPAVKLLYNRS, the protein stability index was found to be 2.31. With SSKEEQKLIATSGKPAVKLLYNRS, the protein stability index was determined as 4.28. Regarding SSKEEQKLIATSNKPAVKELYNRS, the protein stability index came to 4.44. As to SSKEEQKLIATSNKPAVKNLYNRS, the protein stability index was 4.72.

For the variant SSKEEQKLIATSNKPAVKQLYNRS, the protein stability index is 4.31. In the case of SSKEEQKLIATSNKPAVKVLYNRS, the protein stability index stood at 4.25. Next, SSKEEQKLIATSNKPAVKMLYNRS: 4.59; SSKEEQKLIATSNKPAVKCLYNRS: 4.39.

SSKEEQKLIATSNKPAVKYLYNRS: the protein stability index was 4.56. With SSKEEQKLIATSNKPAVKKLYNRS, the protein stability index was determined as 4.69. Next, SSKEEQKLIATSNKPAVKHLYNRS: 4.41. Regarding SSKEEQKLIATSNKPAVKFLYNRS, the protein stability index amounted to 4.12. With SSKEEQKLIATSNKPAVKWLYNRS, the protein stability index came out at 3.35. Take SSKEEQKLIATSNKPAVKGLYNRS: the protein stability index was found to be 4.13. Consider SSKEEQKLIATSNKPAVKPLYNRS, for which the protein stability index stood at 4.94. Consider SSKEEQKLIATSNKPAVKALYNRS, for which the protein stability index worked out at 4.59. Next, SSKEEQKLIATSNKPAVKTLYNRS: 4.95; SSKEEQKLIATSNKPAVKSLYNRS: 4.18; SSKEEQKLIATSNKPAVKRLYNRS: 4.29. Turning to SSKEEQKLIATSNKPAVKDLYNRS, the protein stability index came out at 4.62. Regarding SSKEEQKLIATSNKPAVKILYNRS, the protein stability index came out at 4.59. As for SSKEEQKLIATSNKPAVKLEYNRS, the protein stability index turned out to be 3.98. Consider SSKEEQKLIATSNKPAVKLDYNRS, for which the protein stability index turned out to be 4.53. The value for SSKEEQKLIATSNKPAVKLNYNRS was 4.37. For the variant SSKEEQKLIATSNKPAVKLKYNRS, the protein stability index amounted to 4.53. Next, SSKEEQKLIATSNKPAVKLTYNRS: 4.72. Next, SSKEEQKLIATSNKPAVKLVYNRS: 4.09. Next, SSKEEQKLIATSNKPAVKLAYNRS: 4.89; SSKEEQKLIATSNKPAVKLHYNRS: 4.48; SSKEEQKLIATSNKPAVKLRYNRS: 4.46. As for SSKEEQKLIATSNKPAVKLFYNRS, the protein stability index turned out to be 3.95. The value for SSKEEQKLIATSNKPAVKLSYNRS was 4.35; that for SSKEEQKLIATSNKPAVKLQYNRS was 4.28. The value for SSKEEQKLIATSNKPAVKLPYNRS was 4.98; that for SSKEEQKLIATSNKPAVKLIYNRS was 4.6; that for SSKEEQKLIATSNKPAVKLGYNRS was 4.73.

Take SSKEEQKLIATSNKPAVKLCYNRS: the protein stability index was 3.79. Next, SSKEEQKLIATSNKPAVKLMYNRS: 4.11; SSKEEQKLIAFSNKPAVKLLYNRS: 3.63. Next, SSKEEQKLIALSNKPAVKLLYNRS: 3.7. Next, SSKEEQKLIAWSNKPAVKLLYNRS: 3.35; SSKEEQKLIANSNKPAVKLLYNRS: 3.92.

In the case of SSKEEQKLIAQSNKPAVKLLYNRS, the protein stability index turned out to be 4.15. The value for SSKEEQKLIAGSNKPAVKLLYNRS was 4.16. The value for SSKEEQKLIAISNKPAVKLLYNRS was 3.73; that for SSKEEQKLIAASNKPAVKLLYNRS was 4.42; that for SSKEEQKLIAVSNKPAVKLLYNRS was 3.75. Next, SSKEEQKLIARSNKPAVKLLYNRS: 3.37; SSKEEQKLIAHSNKPAVKLLYNRS: 3.94. As to SSKEEQKLIAKSNKPAVKLLYNRS, the protein stability index came out at 4.19. Next, SSKEEQKLIAPSNKPAVKLLYNRS: 3.97; SSKEEQKLIAMSNKPAVKLLYNRS: 3.6; SSKEEQKLIASSNKPAVKLLYNRS: 4.26. The value for SSKEEQKLIAESNKPAVKLLYNRS was 4.58; that for SSKEEQKLIAYSNKPAVKLLYNRS was 3.6; that for SSKEEQKLIADSNKPAVKLLYNRS was 4.68. The value for SSKEEQKLIACSNKPAVKLLYNRS was 3.61; that for SSKEEQKLIATSNEPAVKLLYNRS was 4.39; that for SSKEEQKLIATSNQPAVKLLYNRS was 4.28.

Turning to SSKEEQKLIATSNAPAVKLLYNRS, the protein stability index came to 3.76. Next, SSKEEQKLIATSNYPAVKLLYNRS: 3.46; SSKEEQKLIATSNGPAVKLLYNRS: 4.03.

As for SSKEEQKLIATSNTPAVKLLYNRS, the protein stability index was determined as 4.04. Take SSKEEQKLIATSNNPAVKLLYNRS: the protein stability index turned out to be 3.96. Consider SSKEEQKLIATSNPPAVKLLYNRS, for which the protein stability index was determined as 4.32. Next, SSKEEQKLIATSNMPAVKLLYNRS: 3.76. On to SSKEEQKLIATSNIPAVKLLYNRS, for which the protein stability index was determined as 3.66. As for SSKEEQKLIATSNWPAVKLLYNRS, the protein stability index came out at 2.63. Next, SSKEEQKLIATSNRPAVKLLYNRS: 4.2; SSKEEQKLIATSNLPAVKLLYNRS: 3.8; SSKEEQKLIATSNCPAVKLLYNRS: 3.73. As for SSKEEQKLIATSNDPAVKLLYNRS, the protein stability index came to 4.57. SSKEEQKLIATSNHPAVKLLYNRS: the protein stability index came out at 3.59. The value for SSKEEQKLIATSNVPAVKLLYNRS was 3.96; that for SSKEEQKLIATSNFPAVKLLYNRS was 3.39; that for SSKEEQKLIATSNSPAVKLLYNRS was 4.24. SSKEEQKLIATSNKPAVPLLYNRS: the protein stability index amounted to 4.25.
